Laboratory results from US20240287172A1 (SCIRHOM, published 2024).
Residue numbers refer to the chain shown, from its start.

Assays:
hiR2-FL-H590A-T7 = molecular target: T1, hiR2-FL-H590A-T7 (human, UniProt Q6PJF5 1-856); experiment: FACS on MEF-DKO cells expressing the variant, 3 µg/ml antibody
T1 sequence: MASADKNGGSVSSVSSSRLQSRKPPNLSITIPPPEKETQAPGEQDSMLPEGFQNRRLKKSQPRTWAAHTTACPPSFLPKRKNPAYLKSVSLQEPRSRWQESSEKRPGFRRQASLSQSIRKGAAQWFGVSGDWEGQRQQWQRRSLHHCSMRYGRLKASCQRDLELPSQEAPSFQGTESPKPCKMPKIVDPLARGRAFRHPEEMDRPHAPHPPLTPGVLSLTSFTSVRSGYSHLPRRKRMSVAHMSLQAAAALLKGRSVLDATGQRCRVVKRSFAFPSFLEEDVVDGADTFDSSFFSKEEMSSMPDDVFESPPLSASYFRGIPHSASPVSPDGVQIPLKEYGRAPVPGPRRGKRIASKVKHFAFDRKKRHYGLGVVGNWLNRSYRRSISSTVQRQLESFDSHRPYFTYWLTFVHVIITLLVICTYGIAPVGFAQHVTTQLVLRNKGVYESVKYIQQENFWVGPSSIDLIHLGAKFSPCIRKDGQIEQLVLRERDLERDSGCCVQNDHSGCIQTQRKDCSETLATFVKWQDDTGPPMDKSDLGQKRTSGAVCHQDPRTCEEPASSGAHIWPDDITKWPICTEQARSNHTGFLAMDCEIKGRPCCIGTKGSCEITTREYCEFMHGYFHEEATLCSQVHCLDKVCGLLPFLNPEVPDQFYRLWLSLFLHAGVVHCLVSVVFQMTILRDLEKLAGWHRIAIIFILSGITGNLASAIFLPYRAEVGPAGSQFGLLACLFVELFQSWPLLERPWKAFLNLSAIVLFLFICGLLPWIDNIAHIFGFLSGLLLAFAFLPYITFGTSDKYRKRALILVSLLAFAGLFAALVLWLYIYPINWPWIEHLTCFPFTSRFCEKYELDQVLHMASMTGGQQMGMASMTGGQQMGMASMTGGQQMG
Procedure, shortened: (§1)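 Primary stain: antibody 3 μg/ml, 1 h on ice; controls buffer alone. Secondary: PE anti-mouse IgG F(ab′)2 1:100, 1 h on ice, light-protected. Washes at 4° C; read by flow cytometry.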

hiR2-FL-Q580A-T7 = molecular target: T2, hiR2-FL-Q580A-T7 (human, UniProt Q6PJF5 1-856); experiment: as above
T2 sequence: T1 sequence with Q580A, A590H
Procedure, shortened: as §1

B1: antibody 48 (antibody, V domains shown)
VH: QVQLQQSGTELVRPGTSVKVSCKASGYAFTNYLIEWVKQRPGQGLEWIGVINPGSGFTKYNEKFKGKATLTADKSSSTVYMHLSSLTSEDSAVYFCARGLYRAMDYWGQGTSVTVSS
VL: DIQMTQSPASQSASLGESVTITCLASQTIATWLAWYQQKPGKSPQLLIYGATTLADGVPSRFSGGGSGTKFSFKISSLQAEDFVSYYCQQLYSTPYTFGGGTKLEIK
notes: mouse IgG, kappa light chain; also called clone #48; purified antibody 48
- loss of binding vs wild type (hiR2-FL-H590A-T7): ≥ 30%

B2: antibody 3 (antibody, V domains shown)
VH: QVTLKESGPGILQPSQTLSLTCSFSGFSLTTFAMGIGWVRQPSGKGLEWLAHIWWDGEKYNNPVLKSRLTISKDTSKNQVFLRIANVDTPDTATYYCARISSIYYIIDNWGQGTSVTVSS
VL: DIVLTQSPATLSVTPGHSVSLSCRASQSISNNLHWYQKKSHESPRLLIKYVSQSISGIPSRFSGSGSGTDFTLSINSVETEDFGMYFCQQSYNWPLTFGAGTKLELK
notes: mouse IgG, kappa light chain; also called clone #3; purified antibody 3
- loss of binding vs wild type (hiR2-FL-Q580A-T7): ≥ 30%
